# Source: IntAct's records for PubMed 24510904
# B1: Ras-related protein Rab-7L1 (Homo sapiens), O14966 (parent)
# chain: MGSRDHLFKVLVVGDAAVGKTSLVQRYSQDSFSKHYKSTVGVDFALKVLQWSDYEIVRLQLWDIAGQERFTSMTRLYYRDASACVIMFDVTNATTFSNSQRWKQDLDSKLTLPNGEPVPCLLLANKCDLSPWAVSRDQIDRFSKENGFTGWTETSVKENKNINEAMRVLIEKMMRNSTEDIMSLSTQGDYINLQTKSSSWSCC
# B2: BAG family molecular chaperone regulator 5 (Homo sapiens), Q9UL15 (parent)
# chain: MDMGNQHPSISRLQEIQKEVKSVEQQVIGFSGLSDDKNYKKLERILTKQLFEIDSVDTEGKGDIQQARKRAAQETERLLKELEQNANHPHRIEIQNIFEEAQSLVREKIVPFYNGGNCVTDEFEEGIQDIILRLTHVKTGGKISLRKARYHTLTKICAVQEIIEDCMKKQPSLPLSEDAHPSVAKINFVMCEVNKARGVLIALLMGVNNNETCRHLSCVLSGLIADLDALDVCGRTEIRNYRREVVEDINKLLKYLDLEEEADTTKAFDLRQNHSILKIEKVLKRMREIKNELLQAQNPSELYLSSKTELQGLIGQLDEVSLEKNPCIREARRRAVIEVQTLITYIDLKEALEKRKLFACEEHPSHKAVWNVLGNLSEIQGEVLSFDGNRTDKNYIRLEELLTKQLLALDAVDPQGEEKCKAARKQAVRLAQNILSYLDLKSDEWEY
# Variants of: B1
# Conditions: with lrrk2_human LRRK2, Q5S007
# Sequence of lrrk2_human LRRK2, Q5S007 (Q5S007 whole entry): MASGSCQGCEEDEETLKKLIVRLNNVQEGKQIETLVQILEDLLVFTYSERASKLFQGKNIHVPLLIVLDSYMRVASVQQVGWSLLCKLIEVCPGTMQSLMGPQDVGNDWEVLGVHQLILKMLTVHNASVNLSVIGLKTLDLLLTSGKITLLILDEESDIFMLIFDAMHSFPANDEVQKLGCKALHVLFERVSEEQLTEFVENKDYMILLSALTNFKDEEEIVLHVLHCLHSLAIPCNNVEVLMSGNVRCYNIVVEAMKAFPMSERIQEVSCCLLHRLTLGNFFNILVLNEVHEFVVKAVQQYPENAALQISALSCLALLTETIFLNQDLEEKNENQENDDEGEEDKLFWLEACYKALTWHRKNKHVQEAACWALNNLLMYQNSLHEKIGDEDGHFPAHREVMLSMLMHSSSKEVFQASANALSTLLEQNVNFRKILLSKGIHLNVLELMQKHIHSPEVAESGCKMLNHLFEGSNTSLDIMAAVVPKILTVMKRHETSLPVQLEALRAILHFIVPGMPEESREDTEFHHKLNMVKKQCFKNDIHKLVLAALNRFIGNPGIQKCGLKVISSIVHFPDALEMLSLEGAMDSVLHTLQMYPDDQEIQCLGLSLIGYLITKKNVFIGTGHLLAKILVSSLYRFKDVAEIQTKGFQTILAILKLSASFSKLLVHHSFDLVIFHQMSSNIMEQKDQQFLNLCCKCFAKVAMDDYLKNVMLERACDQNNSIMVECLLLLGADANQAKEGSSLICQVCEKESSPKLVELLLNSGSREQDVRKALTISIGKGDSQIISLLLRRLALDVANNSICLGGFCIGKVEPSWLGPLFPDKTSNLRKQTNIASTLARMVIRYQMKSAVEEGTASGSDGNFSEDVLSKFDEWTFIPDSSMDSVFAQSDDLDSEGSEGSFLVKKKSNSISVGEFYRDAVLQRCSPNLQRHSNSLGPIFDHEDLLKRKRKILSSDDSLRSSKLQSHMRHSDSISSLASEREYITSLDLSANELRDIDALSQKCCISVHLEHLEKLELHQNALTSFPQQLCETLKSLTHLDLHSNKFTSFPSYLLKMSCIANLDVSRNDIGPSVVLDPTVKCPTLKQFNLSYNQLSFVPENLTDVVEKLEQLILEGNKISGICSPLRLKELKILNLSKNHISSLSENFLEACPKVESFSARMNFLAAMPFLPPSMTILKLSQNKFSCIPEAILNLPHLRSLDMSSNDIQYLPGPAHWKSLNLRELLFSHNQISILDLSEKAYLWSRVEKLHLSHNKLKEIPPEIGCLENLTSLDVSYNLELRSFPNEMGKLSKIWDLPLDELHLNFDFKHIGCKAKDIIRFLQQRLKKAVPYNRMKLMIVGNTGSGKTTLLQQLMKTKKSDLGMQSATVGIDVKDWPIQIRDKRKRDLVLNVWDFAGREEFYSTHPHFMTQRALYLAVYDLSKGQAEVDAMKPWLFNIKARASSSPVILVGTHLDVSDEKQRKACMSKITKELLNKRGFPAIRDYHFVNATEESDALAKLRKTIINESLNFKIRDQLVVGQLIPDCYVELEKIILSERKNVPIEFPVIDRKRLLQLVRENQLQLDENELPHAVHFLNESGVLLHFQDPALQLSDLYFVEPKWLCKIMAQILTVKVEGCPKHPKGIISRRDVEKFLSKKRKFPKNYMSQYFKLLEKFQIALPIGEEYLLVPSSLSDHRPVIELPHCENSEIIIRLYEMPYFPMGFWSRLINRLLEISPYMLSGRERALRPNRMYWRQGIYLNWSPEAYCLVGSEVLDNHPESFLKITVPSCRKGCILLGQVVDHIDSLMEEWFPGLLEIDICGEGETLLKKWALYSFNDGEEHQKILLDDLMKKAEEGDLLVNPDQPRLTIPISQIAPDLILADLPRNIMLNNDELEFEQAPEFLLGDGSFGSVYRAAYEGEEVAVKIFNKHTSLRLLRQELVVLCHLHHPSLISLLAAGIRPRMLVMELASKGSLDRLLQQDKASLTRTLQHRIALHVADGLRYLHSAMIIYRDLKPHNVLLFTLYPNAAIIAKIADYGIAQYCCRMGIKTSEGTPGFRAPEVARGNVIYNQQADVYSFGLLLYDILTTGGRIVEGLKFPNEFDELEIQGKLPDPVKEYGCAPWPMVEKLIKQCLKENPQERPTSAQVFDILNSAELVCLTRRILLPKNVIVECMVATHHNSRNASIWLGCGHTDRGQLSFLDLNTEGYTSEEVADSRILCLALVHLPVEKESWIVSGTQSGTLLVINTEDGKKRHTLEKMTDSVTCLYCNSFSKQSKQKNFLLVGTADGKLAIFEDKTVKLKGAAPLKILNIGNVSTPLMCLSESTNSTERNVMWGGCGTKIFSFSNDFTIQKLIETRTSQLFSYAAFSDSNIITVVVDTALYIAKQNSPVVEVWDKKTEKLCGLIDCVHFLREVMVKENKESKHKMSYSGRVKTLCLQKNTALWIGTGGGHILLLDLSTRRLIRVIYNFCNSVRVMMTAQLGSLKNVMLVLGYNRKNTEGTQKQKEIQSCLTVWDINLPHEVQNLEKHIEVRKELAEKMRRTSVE
row,Variant,effect of a mutation on the interaction
1,MGSRDHLFKVLVVGDAAVGKTSLVQRYSQDSFSKHYKSTVGVDFALKVLQWSDYEIVRLQLWDIAGLERFTSMTRLYYRDASACVIMFDVTNATTFSNSQRWKQDLDSKLTLPNGEPVPCLLLANKCDLSPWAVSRDQIDRFSKENGFTGWTETSVKENKNINEAMRVLIEKMMRNSTEDIMSLSTQGDYINLQTKSSSWSCC [Q67L],increasing interaction
2,MGSRDHLFKVLVVGDAAVGKNSLVQRYSQDSFSKHYKSTVGVDFALKVLQWSDYEIVRLQLWDIAGQERFTSMTRLYYRDASACVIMFDVTNATTFSNSQRWKQDLDSKLTLPNGEPVPCLLLANKCDLSPWAVSRDQIDRFSKENGFTGWTETSVKENKNINEAMRVLIEKMMRNSTEDIMSLSTQGDYINLQTKSSSWSCC [T21N],increasing interaction

# Variants of: B1
# Conditions: with lrrk2_human LRRK2, Q5S007
# Remark: another data set of the same source
row,Variant,effect of a mutation on the interaction
1,MGSRDHLFKVLVVGDAAVGKTSLVQRYSQDSFSKHYKSTVGVDFALKVLQWSDYEIVRLQLWDIAGLERFTSMTRLYYRDASACVIMFDVTNATTFSNSQRWKQDLDSKLTLPNGEPVPCLLLANKCDLSPWAVSRDQIDRFSKENGFTGWTETSVKENKNINEAMRVLIEKMMRNSTEDIMSLSTQGDYINLQTKSSSWSCC [Q67L],disrupting interaction

# Variants of: B2
# Conditions: with lrrk2_human LRRK2, Q5S007
row,Variant,effect of a mutation on the interaction
1,MDMGNQHPSISRLQEIQKEVKSVEQQVIGFSGLSDDKNYKKLERILTKQLFEIASVDTEGKGDIQQAAKRAAQETERLLKELEQNANHPHRIEIQNIFEEAQSLVREKIVPFYNGGNCVTDEFEEGIQDIILRLTHVKTGGKISLRKARYHTLTKICAVQEIIEDCMKKQPSLPLSEDAHPSVAKINFVMCEVNKARGVLIALLMGVNNNETCRHLSCVLSGLIADLAALDVCGRTEIRNYAREVVEDINKLLKYLDLEEEADTTKAFDLRQNHSILKIEKVLKRMREIKNELLQAQNPSELYLSSKTELQGLIGQLAEVSLEKNPCIREAARRAVIEVQTLITYIDLKEALEKRKLFACEEHPSHKAVWNVLGNLSEIQGEVLSFDGNRTDKNYIRLEELLTKQLLALAAVDPQGEEKCKAAAKQAVRLAQNILSYLDLKSDEWEY [D54A;R68A;D228A;R242A;D318A;R332A;D410A;R424A],decreasing interaction
